Among the data in patent publication US20060141569A1 (published 2006) are Ki values, retold here.

Experiment [1] concerns the target C5aR+Gα15/CHO. The experiment can be described thus: binding; two sites, site 2.
Experiment [2] concerns the target T1, C5aR transfected into CHEM-1 cells using the pHS vector (UniProt P21730 1-350).
T1 chain: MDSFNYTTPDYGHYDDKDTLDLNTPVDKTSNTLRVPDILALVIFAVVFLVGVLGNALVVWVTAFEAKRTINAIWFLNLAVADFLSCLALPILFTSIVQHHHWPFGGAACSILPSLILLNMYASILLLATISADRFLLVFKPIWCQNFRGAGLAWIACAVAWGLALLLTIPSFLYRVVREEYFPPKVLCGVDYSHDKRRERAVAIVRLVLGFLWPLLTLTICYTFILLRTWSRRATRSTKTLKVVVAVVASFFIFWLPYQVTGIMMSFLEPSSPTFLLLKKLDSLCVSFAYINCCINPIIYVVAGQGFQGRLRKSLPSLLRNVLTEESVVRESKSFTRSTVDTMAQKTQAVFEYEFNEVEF
The experiment can be described thus: binding.

Experiment [3] concerns the target C5aR+Gα15/CHO. Put plainly: binding; two sites, site 1.

B1: C5a (ligand)
chain: TLQKKIEEIAAKYKHSVVKKCCYDGACVNNDETCEQRAARISLGPRCIKAFTECCVVASQLRANISHKDMQLGR
As for B1, the Ki in the experiment with C5aR+Gα15/CHO [1] worked out at 34 nM; in experiment [2], 0.5 nM; with C5aR+Gα15/CHO [3] it was 0.6 nM.

One may read the Ki as the dissociation constant of the complex between target and ligand, obtained from inhibition or displacement.
